Data taken from the nanobody polyreactivity screen of Harvey et al. (2022).

Assay: yeast display, Sf9 membrane polyspecificity reagent, FACS + sequencing; frameworks hold sequencing errors
Outline: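 Nanobodies from a synthetic yeast display library (Saccharomyces cerevisiae BJ5465), induced 36–48 hours with galactose, were stained 1 hour at 4 °C with 10% biotinylated, detergent-solubilized Sf9 membrane reagent, enriched on streptavidin microbeads, then FACS-sorted. Anti-HA (expression) and streptavidin (reagent binding) fluorescence set low and high (top ~1%) gates. Polyreactivity labels come from the gate of origin. Genes were colony-PCR amplified, MiSeq 2 × 250 sequenced and filtered by CDR length.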

## QVQLVDSGGVLVQAGGSLRLSCAASGFTFRDYAMGWYRQAPGKERELVAAISRSGDSTYYADSVKGRFTISRDNAKNTVYLQMNSLKPEDTAVYYYAAKRRYTTYDYWGQGTQVTVSS
  polyreactivity (PSR sort gate): high polyreactivity

## QVQLVDSGGGLVQAGGSLRLSCAASGITFGRNTMGGYRQAPGKERELVAAIDSGGNTYADSVKGRFTISRDNAKNSVYLQMNSLKPEDTAVYYCAVDGGEFSSYGYWGQGTQVTVSW
  polyreactivity (PSR sort gate): low polyreactivity

## QVQLVESGGGLVQAGGSLRLICAASGSTYRGYAMGWYRQAPGKERELVAAISYISGGTYYADSVKGRFTISRDNAKYTVYLQMNSLKPEDTAVYYCAVGSHSRSSNSYYYWGQGTQVTVSW
  polyreactivity (PSR sort gate): low polyreactivity

## QVQLVESGGGLVQAGGSLRLSCAASGSILGLNAMGWYRQAPGKERELVAAITSRGGSTYYADSVKGRFTISRDNAKNTVYLQMNSLKPEDTAVYYCNREYVRVNYQYWYYAEYDYWGQGTQVTVSS
  polyreactivity (PSR sort gate): low polyreactivity

## QVQLVESGGGLVQAGGSLRLSSAASGFTFVTYSKGWNRQATGKERELVAAISIRGGSTYADSVKGRFTISRDNAKNSVYLQMNSLKPEDTAVYSCATGRALEYNYWGQGTQVTVSS
  polyreactivity (PSR sort gate): low polyreactivity

## QVQLQVSGGGLVQAGGSLRLSCAASGSIFLTSEMGWYRQAPCKERELVAANATGTSTNYADSVKGRFTISRDNAKNTVYLQMKSLKPEDTSVYYCAAGTQAHAFVVRPIEMDYWGQGTQVTVSS
  polyreactivity (PSR sort gate): low polyreactivity

## QDQLVESGGGLFQAGGSLRLSCGASGFIFRWNAMGWSRQAPGKEREMVAAITRGGSTYYADSVKGRFSISRDNAKNTVYLQMNSLKPEDTAVYFCAAGYVYRGASGGYWGQGTQVTVSS
  polyreactivity (PSR sort gate): high polyreactivity

## QVQLVESGGGLVQAGGSLRLSCADSGSTFRYYAMGWYRQAPGKERELVAAITKNGGSTYYADSVKGRFTISRDNAKNTVYLEMNSLKPEDTAVYYCAVQFSYSGWYYVSYYYWGQGTQVTVSS
  polyreactivity (PSR sort gate): high polyreactivity

## QVQLVESGGGLVQAGGSLRLSCAASGRTSPGYAMGWYRQAPGKEREFVAGISRGGGSTYYADSVKGRFTISRDNAKNTVYLQMNSLKPEDTEVYYCNVRGPGFYWNWGQSHYYGYDYWGQGTQVTVSS
  polyreactivity (PSR sort gate): high polyreactivity

## QVQLEESGGGLVQAGGSLRLSCAASGRIFVTNAMGWSRQAPGKERELVADITSGGSTNYADSVKGRFTISRDNAKNTVYLQMNSLKPEDTAVYYCAARFTPYITSDDGHYDYWGQGTQVTVSS
  polyreactivity (PSR sort gate): low polyreactivity

## KVQLLESGGGLFQAGGSVRLSCAASGSIIFTYAMGWSRQSPGTEREWVAVITWCGGSTYYADSVKGRFTISRDYAKNTVYLQMNSLKPEDTAVYYCAKDSYYYRRDVTVDYWVQGTQVTVSS
  polyreactivity (PSR sort gate): low polyreactivity

## QVQLVESGAGVVQAGGSLRLSCAASGSTFYRYAMGWYRQAPGKERELVATITNSGGSTYYADSVKGRFTISRDNAKNTVYLQMNSLKPEDTAVYYCARVRSRNTGYYYWGQGTQVTVSS
  polyreactivity (PSR sort gate): high polyreactivity

## QVQLVESGGGLVQAGGSLRLSCAASGSTFWYYTMGWYRQAPGKERELVAAITESGGGTYYADSVKGRFTISRDNAKNTVYLQMNSLKPEDTAVYYCAAYSRFTSDYWGQGTQVTVSS
  polyreactivity (PSR sort gate): high polyreactivity

## QVQLVESGGGLAQAGGSLRLSCAASGRTFRRYAMGWYRQAPGKEREMVAAITSGGDTYYADSVKGRFTISRDNAKNTVYLQMNSLKPEDTAVYYCNAASVTRRTGIRAVDFDYWGQGTQVTVSS
  polyreactivity (PSR sort gate): high polyreactivity

## QVQLVESGGGLVQAGGSLRLSCAASGFTFRYYAMGWSRQDPGKERELVAAITNVGSTNYADSVKGRFTISRDNAKYTVYLLMNSLKPEDTAVYYCNAPRTPWRRSYDYWGQGTQVTVSW
  polyreactivity (PSR sort gate): high polyreactivity

## QVQLVESAGGLVQAGGSLRLSCAASGRIFWDYAMGWYRQAPGKERELVATITQNDGSTYYADSVKGRFTISRDNAKNTVYLQMNSLKPEDTAVYYCAAYLLGWFTIKYDYGGQGTQVTVSS
  polyreactivity (PSR sort gate): low polyreactivity

## QVQLVDSGGGLVQAGGSLRLSCAASGLTIYAYAMGWYRQAPGKERELVAAISSGGSTSYADSVKGRFTISRDNAKNTVYLQMNSLKPEDTAVYYCAARPKSSRFFGWGYNYWGQGTQVTVSS
  polyreactivity (PSR sort gate): high polyreactivity

## QVQLVDSGGGLVQAGGSLRLSCAASGSTCYYYNMGWYRQSPWKERELVAAISFIGGSTYYADSVKGRFTISRDNAKYTVYLQMNSLTPEDTAVFYCAAEFYRWGSLSFSNDYWGQGTQVTVSS
  polyreactivity (PSR sort gate): low polyreactivity

## QVQLVESGGGLDQAGGSLRLSCAASGFIFVYNVMGWYRQAPGKEREFVATITWRGVTTYYADSVKGRFTISRDNAKNTVYLQMNSLKPEDTAVYYCAVTVAYSYPRRSHYYWGQGTQVTVSS
  polyreactivity (PSR sort gate): low polyreactivity

## QVQLVESGGGLVQAGGSLRLSCAASGRTFGNYAMGWYRQAPAKESELVAAITGRGGSTHYADSVKGRFTISRDNAKYTVYLQMNSLKPEDTAVYDCAADYRYNRGITSNKDYDYWGQGTQVTVSS
  polyreactivity (PSR sort gate): low polyreactivity

## QVQLVESGGGLVQAGGSLRLSCAPSGSTFTSYAMGWYRQAPGKERELVAAITYGSGTTYADSVKGRFTISRDNAKNTVYLQMNSLKPEDTAVYYCAADFYYPVLGHGFPTYEYDYWGQGTQVTVSS
  polyreactivity (PSR sort gate): low polyreactivity

## QVQRVESGRGLVHAGGRLRLSCAASGSIFTYYPMGWSRPAPGKERELVAAISYSGGTTYYADSVKGRFTISRDNAKNTVYLQMNSLKPEDTAVYYCNVDADYESKWLSVGYDYWGQGTQVTVSS
  polyreactivity (PSR sort gate): low polyreactivity

## QVQLVESGGGLVQAGGSLRLSSAASGSTFDSNAMGWYRQAPGKERELVAAIDYSSDSTYYADSVKGRFTISRDNAKNTVYLQMNSLKPEDTAVYYCAAVAYIFCARYGYNYWGQGTQVTVSS
  polyreactivity (PSR sort gate): low polyreactivity

## QVQLVESGGGLVLAGGSLRLSCASSGRTFPSYAKGWYRQAPGKERELVAAITRGGSTNYADSVKGRFTISRDNAKNTVYLQMNSLKPEDTAVYYCAAARWRWQLARDDYWGQGTQVTVSS
  polyreactivity (PSR sort gate): high polyreactivity

## QVQLVESGGGLVQAGGSLRLSCAASGRIFDYYAMGWYRQAPGKERELVAAITSSGGSTYYADSVKGRFTISRDNAKNTVYLQMNSLKPEDTAVYYCAAGRKVQSRRYGYWGQGTQVTVSS
  polyreactivity (PSR sort gate): high polyreactivity

## QVQLVESGGGLVQAGGSLRLSCAASGFTFLVNAMGWYRLAPGKERELVAAISRIGASTYYADSVKVRFTISRDNAKNTVYIQMNSLKPQDTAVNYCAARPWANTYPRRRYDYWGQGTQVTVSS
  polyreactivity (PSR sort gate): high polyreactivity

## QVQLVESGGGLVQAGGSLRLSCAASGFIFYNYAMGWSRQAPGKERELVAAITGGGSTNYADSVKGRFTISRDNAKTTVYLQMNSLKPEDTAVYYCAAEEGPPWSRYDYWGQGTQVTVSS
  polyreactivity (PSR sort gate): low polyreactivity

## QVQVVESGGGLVQAGGSLRLSCAASGRTFVSYAMGWYRQATGKERELVAAISSSGGRTYYADSVKGRFTISRDNAMNTVYLQMNSLKPEDTAVYYCYAVRFISARYDYWGQGTQVTVSS
  polyreactivity (PSR sort gate): high polyreactivity

## QVQLVESGGGLVQAGGSLRLSCAASGSIFGYYAMGWYRQAPGKERELVASITSDTSTNYADSVKGRFTISRDNAQNTVYLQMNSLKPEDTAVYYCNARIAKWKRGYSSTFDYWGQGTQVTVSS
  polyreactivity (PSR sort gate): low polyreactivity

## QVQLVESGGGLVQAGGSLRLSCAASGSTFYFYAMGWYRPAPGKERELVAAITYSGGSTYYADSVKGRFTISRDNAKNTVYLQMNSLKPEDTAVYYCAAQWRRHSTRSRYYYWGQGSQVTVSS
  polyreactivity (PSR sort gate): high polyreactivity

## QVKLVESGVGLVKAGVSLRLSSAASGFTFYSYAMGCYRQAPGKESELVAAISWSGSRTYYADSVKGRFTISRDNAKNTVYLQMNSLKPEDTGVYYCAAYSYVRYSSWSDYWGLGTQVTVSS
  polyreactivity (PSR sort gate): high polyreactivity

## QVQLVESGGGLVQAGGSLRLSCAASGSIFGYNTMGWYRQAPGKERDLVADISVSGDDTYYADSVKGRFTISRDNAKITVYLQMNSLKPEDTAVYYCNADEYYGYYHTYDYWGQGTQVTVSS
  polyreactivity (PSR sort gate): low polyreactivity

## QVQLVESGGGLVQAGGSLRLSCAASGRTFFYYAMGWYRQAPGKERELVAAISTGGSTNYADSVKGRFTISRDNAKNTVYLQMNSLKPEDTAVYYCNADYDKGVRFNFNASFGEFDYWGQGTQVTVSS
  polyreactivity (PSR sort gate): low polyreactivity

## QVQLVESGGGLVQAGGSLRLICAASGSIFVTNGMGWYRQAPGKERELVAAIRWSGDSTYYADSVKGRFTISRDNGKNTVFLLMKSLKPEDTAVYYCAAESFRYIRLNYKYGDYYWGQGTQVTVSS
  polyreactivity (PSR sort gate): high polyreactivity

## QVQLVESGGGLVQAGGSLRLSCAASGIIFYGNVMGWYRQAPGKERELVAGINSSGASTYYADSVKGRFTISRDNAKNTVYLQMNSLKPEDTAVYYCAARGPRVRLNSYYAGRYDYWGQGTQVTVSS
  polyreactivity (PSR sort gate): low polyreactivity

## QVQLVESGGGLVQAGGRLRLSCAPSGLIFQHNSMGWYRKATGKERELVASITWDGGSTYYADSVKGRFTISRDNAKNTVYLQMNSLKPEDTAVYYCAARFDSFWVEYDYWGQGTQVTVSS
  polyreactivity (PSR sort gate): low polyreactivity

## QVQLVESGGGLVQAGGSLRVSCAASGRILPRYAMGWYRQAPGKEREFVARIDSGGSTNYADSVKGRFTISRDNAKNTVYIQMNSLKPEDTAVYYCAAVGTAQAYAYFTYGYDYWGQGTQVTVSS
  polyreactivity (PSR sort gate): low polyreactivity

## QVQLVQSGGGLVQAGGSLSLSCAASVFIFYYYDMGWYIQAPGKERELVAAISGRDGSTYYADSVKGRFTISRDNAKNTVYLQMNSLKPEDTAVYYCAAANRSRSIGSQYGYWGQGTQVTVSS
  polyreactivity (PSR sort gate): high polyreactivity

## QVQLVESGGGLVQAGGSLRLSCAASGSIFYAYAMGWYRQAPGKEREFVAVISYSGGSTYYADSVKGRFTISRDNAKNTVYLQMNSLKPEDTAVYYCAARYRRPYSYYYWGQGTQVTVSS
  polyreactivity (PSR sort gate): high polyreactivity

## QVQLVESGGGLVQAGGSLRLSCGASGSTFDHYAMGWYRQAPGKERELVAAITRSGGSTYYADSVKGRFTISRDNAKNTVYIQMNSLKPEDTAVYYCNARRWITSDYWGQGTQVTVSS
  polyreactivity (PSR sort gate): high polyreactivity

## QVQLVESGGGLVQAGGSLRLSCAASGSIFGGYAMGWYRQAPGKERELVAAITSSGGRTYYADSVKGRFTISRDNAKNTVYLQMNSLKPEDTAVYYCAASPNYYYYYPMYYWGQGTQVTVSS
  polyreactivity (PSR sort gate): high polyreactivity

## QVQLVESGGGLVQAGGSLRLSCAASGLIFSYYAMGWYRQAPGKERELVAAISRGGSTNYADSVKGRFTISRDNAKNTVNLQMNSLKPEDTAVYYFAAGRFAYHDDYWGQGTQVTVSS
  polyreactivity (PSR sort gate): high polyreactivity

## QVQLVESGGGLVQAGGSLRLSCAASGSTFGFYAMGWYRQAPGKERELVAAIDWISGSTYYADSVKGRFTISRDNAKNTVYLQLNSLKPEDTAVYYCAAQFYYHFRYHFDWGQGTQVTVSS
  polyreactivity (PSR sort gate): low polyreactivity
